We go through four molecules from patent US20230136723A1.

The target of test [1] is human PD-L1, full-length, expressed on transfected Expi293F cells (human) (UniProt Q9NZQ7). In words: flow cytometry, PD-L1-transfected Expi293 cells.
The target is the same in test [2]. In words: flow cytometry, PD-L1-transfected cells; MFI over WT CD80 ECD-Fc.
The target in the next test is human CTLA-4 (human) (UniProt P16410). The test is described as follows: flow cytometry, transfected cells. For orientation: A flow cytometer gives signals particle by particle.
The next test deals with human PD-L1 (human) (UniProt Q9NZQ7). In words: flow cytometry, transfected cells.
Test [3] has as its target human CD28 (human) (UniProt P10747). The test is described as follows: flow cytometry on transfected cells.
Test [4] shares this target. In words: flow cytometry; ratio to WT stack m3.

Sequence of UniProt P16410 (P16410 36-223): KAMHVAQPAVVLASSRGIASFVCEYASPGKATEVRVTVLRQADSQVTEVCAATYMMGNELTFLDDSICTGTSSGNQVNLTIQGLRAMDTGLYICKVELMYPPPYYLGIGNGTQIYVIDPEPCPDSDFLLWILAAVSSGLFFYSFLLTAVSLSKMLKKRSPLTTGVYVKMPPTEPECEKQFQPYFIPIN

With variant CD80 ECD-Fc fusion A91G/S103P, the MFI in test [1] worked out at 9 MFI.

On to “variant CD80 ECD-Fc fusion V20L/L70Q/A91S/I118V/T120S/T130A”, for which, in test [2], the MFI parental ratio was determined as 0.13. The MFI in test [1] was found to be 9 MFI.

Consider “variant CD80 ECD-Fc H18L/R29D/Y31L/Q33H/K36G/M38I/T41A/M43R/M47T/E81V/L85R/K89N/A91T/F92P/K93V/R94L/L97R/T130A/N149S (Fc fusion)”, for which the MFI with human CTLA-4 (human) was 2180; with human PD-L1 (human), 100000.

B1: Domain 1: CD80 I67T/L70Q/A91G/T120S / Domain 2: CD80 E88D/K89R/D90K/A91G/F92Y/K93R / Fc (Fc fusion)
chain: VIHVTKEVKEVATLSCGHNVSVEELAQTRIYWQKEKKMVLTMMSGDMNIWPEYKNRTIFDITNNLSTVIQALRPSDEGTYECVVLKYEKDGFKREHLAEVTLSVKADFPTPSISDFEIPGGGGSGGGGSGGGGSVIHVTKEVKEVATLSCGHNVSVEELAQTRIYWQKEKKMVLTMMSGDMNIWPEYKNRTIFDITNNLSIVILALRPSDEGTYECVVLKYDRKGYRREHLAEVTLSVKADFPTPSISDFEIPGGGGSGGGGSAAAEPKSSDKTHTCPPCPAPELLGGPSVFLFPPKPKDTLMISRTPEVTCVVVDVSHEDPEVKFNWYVDGVEVHNAKTKPCEEQYGSTYRCVSVLTVLHQDWLNGKEYKCKVSNKALPAPIEKTISKAKGQPREPQVYTLPPSREEMTKNQVSLTCLVKGFYPSDIAVEWESNGQPENNYKTTPPVLDSDGSFFLYSKLTVDKSRWQQGNVFSCSVMHEALHNHYTQKSLSLSPGK
Regarding B1, the MFI with human CD28 (human) [3] was 938 MFI. Also, the WT parental MFI ratio with human CD28 (human) [4] stood at 0.57.
